Data set [1] has as its system HeLa Kyoto. The data set is described as follows: solubility in G1/S (NP-40 vs SDS abundance) (log2 ratio); higher = more soluble. The note with it: cell cycle stage: G1/S.
Data set [2] has as its system HeLa Kyoto. The data set is described as follows: melting temperature (median over replicates), in situ; higher = more thermally stable.
Data set [3] deals with HeLa Kyoto. The data set is described as follows: solubility change mitosis vs G1/S (difference of NP-40 vs SDS log2 ratios) (log2 ratio difference); higher = more soluble in mitosis.
For data set [4], the system named is HeLa Kyoto. The data set is described as follows: thermal stability score vs G1/S (z-score of summed log2 fold changes over temperatures); higher = more thermally stable than in G1/S.
[5] abbreviates: cell cycle stage: early G1 (4.5 h after nocodazole release).
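Wherever melting temperature (median over replicates), in situ is given: HeLa Kyoto cells synchronized by double thymidine or nocodazole block, proteins quantified by TMT10plex mass spectrometry, three independent biological replicates.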
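Wherever solubility change mitosis vs G1/S (difference of NP-40 vs SDS log2 ratios) is given: synchronized HeLa Kyoto cells (double thymidine block for G1/S, nocodazole release for mitosis), protein amounts in NP-40 versus SDS lysates quantified by mass spectrometry, three biological replicates.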
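Wherever solubility in G1/S (NP-40 vs SDS abundance) is given: HeLa Kyoto cells arrested at G1/S by double thymidine block, proteins quantified by TMT10plex mass spectrometry in mild NP-40 versus SDS extracts, three biological replicates.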
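Wherever thermal stability score vs G1/S (z-score of summed log2 fold changes over temperatures) is given: synchronized HeLa Kyoto cells, proteins quantified by TMT10plex mass spectrometry, three biological replicates, mitosis taken 0.5 h after nocodazole release, G1/S directly after double thymidine block.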

Turning to “MSAAGLLAPAPAQAGAPPAPEYYPEEDEELESAEDDERSCRGRESDEDTEDASETDLAKHDEEDYVEMKEQMYQDKLASLKRQLQQLQEGTLQEYQKRMKKLDQQYKERIRNAELFLQLETEQVERNYIKEKKAAVKEFEDKKVELKENLIAELEEKKKMIENEKLTMELTGDSMEVKPIMTRKLRRRPNDPVPIPDKRRKPAPAQLNYLLTDEQIMEDLRTLNKLKSPKRPASPSSPEHLPATPAESPAQRFEARIEDGKLYYDKRWYHKSQAIYLESKDNQKLSCVISSVGANEIWVRKTSDSTKMRIYLGQLQRGLFVIRRRSAA [SUDS3]”, in the data set on HeLa Kyoto [1], the “solubility in G1/S (log2)” value amounted to 0.341. Also, the melting temperature came out at 49 °C in the data set with HeLa Kyoto [2] (cell cycle stage: G1/S) and 50.6 °C with HeLa Kyoto [2] (cell cycle stage: mitosis). In addition, in the data set with HeLa Kyoto [3], the “solubility change mitosis (log2)” value was found to be 0.238. In addition, the thermal stability score amounted to 0.216 in the data set on HeLa Kyoto [4] (setting [5]) and 0.399 with HeLa Kyoto [4] (cell cycle stage: mitosis).
As for “MSAAKENPCRKFQANIFNKSKCQNCFKPRESHLLNDEDLTQAKPIYGGWLLLAPDGTDFDNPVHRSRKWQRRFFILYEHGLLRYALDEMPTTLPQGTINMNQCTDVVDGEGRTGQKFSLCILTPEKEHFIRAETKEIVSGWLEMLMVYPRTNKQNQKKKRKVEPPTPQEPGPAKVAVTSSSSSSSSSSSIPSAEKVPTTKSTLWQEEMRTKDQPDGSSLSPAQSPSQSQPPAASSLREPGLESKEEESAMSSDRMDCGRKVRVESGYFSLEKTKQDLKAEEQQLPPPLSPPSPSTPNHRRSQVIEKFEALDIEKAEHMETNAVGPSPSSDTRQGRSEKRAFPRKRDFTNEAPPAPLPDASASPLSPHRRAKSLDRRSTEPSVTPDLLNFKKGWLTKQYEDGQWKKHWFVLADQSLRYYRDSVAEEAADLDGEIDLSACYDVTEYPVQRNYGFQIHTKEGEFTLSAMTSGIRRNWIQTIMKHVHPTTAPDVTSSLPEEKNKSSCSFETCPRPTEKQEAELGEPDPEQKRSRARERRREGRSKTFDWAEFRPIQQALAQERVGGVGPADTHEPLRPEAEPGELERERARRREERRKRFGMLDATDGPGTEDAALRMEVDRSPGLPMSDLKTHNVHVEIEQRWHQVETTPLREEKQVPIAPVHLSSEDGGDRLSTHELTSLLEKELEQSQKEASDLLEQNRLLQDQLRVALGREQSAREGYVLQATCERGFAAMEETHQKKIEDLQRQHQRELEKLREEKDRLLAEETAATISAIEAMKNAHREEMERELEKSQRSQISSVNSDVEALRRQYLEELQSVQRELEVLSEQYSQKCLENAHLAQALEAERQALRQCQRENQELNAHNQELNNRLAAEITRLRTLLTGDGGGEATGSPLAQGKDAYELEVLLRVKESEIQYLKQEISSLKDELQTALRDKKYASDKYKDIYTELSIAKAKADCDISRLKEQLKAATEALGEKSPDSATVSGYDIMKSKSNPDFLKKDRSCVTRQLRNIRSKSVIEQVSWDT [MPRIP]”, the “solubility in G1/S (log2)” value in the data set with HeLa Kyoto [1] was -1.2. The melting temperature in the data set with HeLa Kyoto [2] (cell cycle stage: G1/S) stood at 51.9 °C; in the data set on HeLa Kyoto [2] (cell cycle stage: mitosis), 52.6 °C. For the same sequence, in the data set on HeLa Kyoto [3], the “solubility change mitosis (log2)” value was 0.41. In addition, the figures for the thermal stability score in the data set with HeLa Kyoto [4] (setting [5]) and with HeLa Kyoto [4] (cell cycle stage: mitosis) were -0.81 and -1.05, respectively.
As to “MSAFSEAALEKKLSELSNSQQSVQTLSLWLIHHRKHSRPIVTVWERELRKAKPNRKLTFLYLANDVIQNSKRKGPEFTKDFAPVIVEAFKHVSSETDESCKKHLGRVLSIWEERSVYENDVLEQLKQALYGDKKPRKRTYEQIKVDENENCSSLGSPSEPPQTLDLVRALQDLENAASGDAAVHQRIASLPVEVQEVSLLDKITDKESGERLSKMVEDACMLLADYNGRLAAEIDDRKQLTRMLADFLRCQKEALAEKEHKLEEYKRKLARVSLVRKELRSRIQSLPDLSRLPNVTGSHMHLPFAGDIYSED [RPRD1A]”, in the data set on HeLa Kyoto [1], the “solubility in G1/S (log2)” value is 0.66. For the same sequence, the melting temperature in the data set with HeLa Kyoto [2] (cell cycle stage: G1/S) turned out to be 48 °C; in the data set with HeLa Kyoto [2] (cell cycle stage: mitosis) it was 49.5 °C. In addition, in the data set on HeLa Kyoto [3], the “solubility change mitosis (log2)” value is -0.0443. The thermal stability score in the data set on HeLa Kyoto [4] (setting [5]) turned out to be 1.27; with HeLa Kyoto [4] (cell cycle stage: mitosis) it was 1.64.
For the sequence “MSAIQAAWPSGTECIAKYNFHGTAEQDLPFCKGDVLTIVAVTKDPNWYKAKNKVGREGIIPANYVQKREGVKAGTKLSLMPWFHGKITREQAERLLYPPETGLFLVRESTNYPGDYTLCVSCDGKVEHYRIMYHASKLSIDEEVYFENLMQLVEHYTSDADGLCTRLIKPKVMEGTVAAQDEFYRSGWALNMKELKLLQTIGKGEFGDVMLGDYRGNKVAVKCIKNDATAQAFLAEASVMTQLRHSNLVQLLGVIVEEKGGLYIVTEYMAKGSLVDYLRSRGRSVLGGDCLLKFSLDVCEAMEYLEGNNFVHRDLAARNVLVSEDNVAKVSDFGLTKEASSTQDTGKLPVKWTAPEALREKKFSTKSDVWSFGILLWEIYSFGRVPYPRIPLKDVVPRVEKGYKMDAPDGCPPAVYEVMKNCWHLDAAMRPSFLQLREQLEHIKTHELHL [CSK]”, in the data set on HeLa Kyoto [1], the “solubility in G1/S (log2)” value was found to be 0.0872. Besides, the melting temperature in the data set on HeLa Kyoto [2] (cell cycle stage: G1/S) stood at 49.3 °C; in the data set on HeLa Kyoto [2] (cell cycle stage: mitosis), 49.8 °C. Further, the “solubility change mitosis (log2)” value with HeLa Kyoto [3] was -0.139. Also, the thermal stability score in the data set on HeLa Kyoto [4] (setting [5]) was -0.12; in the data set on HeLa Kyoto [4] (cell cycle stage: mitosis) it was 0.74.

The record behind these values is the supplement of paper PMC5998384.
